Measurements published in publication PMC11742915 (Nature Communications, 2025).

Columns and labels:
IFNλR1 (Homo sapiens) = IFNλR1 (Homo sapiens) (UniProt Q8IU57); details: cited from earlier work
IFNλR1 [1] = biological target: T1, IFNλR1 (UniProt Q8IU57 21-226, biotin (in SPR, MST and yeast staining); fluorescent dye NanoTemper NT-L020 (in MST)); experiment: SPR; Biacore T200, 22 °C, equilibrium method; ~850 RU biotinylated IFNλR1 captured on a Biotin CAPture chip, IFNλ4 as analyte, nine points; 10 mM MES pH 5.6, 500 mM NaCl, 10% glycerol, 0.05% Tween20; 1:1 binding model; details: both partners purified
IFNλR1 [2] = biological target: T1, IFNλR1; experiment: cell-based or functional assay
IFNλ3 = biological target: T2, IFNλ3 (UniProt Q8IZI9 34-196); experiment: MST
T2 chain: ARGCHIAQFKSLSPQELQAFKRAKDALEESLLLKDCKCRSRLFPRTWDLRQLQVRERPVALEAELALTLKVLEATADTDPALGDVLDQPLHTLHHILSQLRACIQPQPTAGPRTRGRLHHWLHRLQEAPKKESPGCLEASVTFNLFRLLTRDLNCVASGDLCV

IFNλ4 = biological target: T3, IFNλ4 (human, UniProt K9M1U5-1 22-179); experiment: MST
T3 chain: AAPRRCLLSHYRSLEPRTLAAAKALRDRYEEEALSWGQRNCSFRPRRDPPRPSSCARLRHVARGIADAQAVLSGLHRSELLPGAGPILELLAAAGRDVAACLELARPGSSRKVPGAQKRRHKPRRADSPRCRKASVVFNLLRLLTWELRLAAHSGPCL

In the case of IFNλ3 (from UniProt Q8IZI9), the Kd (IFNλR1 (Homo sapiens)) is given as 850 nM.

B1: IFNλ4 (ligand, human, UniProt K9M1U5-1 22-179, looked up)
chain: T3 chain
notes: codon-optimised gene; also called interferon lambda 4; source: insect Hi5 cells (baculovirus), secreted as sfGFP-10RB-IFNλ4, cleaved with 3C protease, purified (S75 Superdex)
In the case of B1, the Kd (IFNλR1 [1]) is reported as 191 nM and the “pSTAT1 signaling in Hap1 cells, EC50 relative to IFNλ3” value (IFNλR1 [2]) is reported as 20 fold.

B2: IFNλR1 (receptor)
chain: RPRLAPPQNVTLLSQNFSVYLTWLPGLGNPQDVTYFVAYQSSPTRRRWREVEECAGTKELLCSMMCLKKQDLYNKFKGRVRTVSPSSKSPWVESEYLDYLFEVEPAPPVLVLTQTEEILSANATYQLPPCMPPLDLKYEVAFWKEGAGNKTLFPVTPHGQPVQITLQPAASEHHCLSARTIYTFSVPKYSKFSKPTCFLLEVPEAN
modifications: biotin (in SPR, MST and yeast staining); fluorescent dye NanoTemper NT-L020 (in MST)
With B2 the Kd (IFNλ3) was 1580 nM and the Kd (IFNλ4) was 396 nM.
